Measured values published in PMC5679434 (Nature methods, 2017).

Target: Thermoplasma acidophilum 20S proteasome α-subunit (Thermoplasma acidophilum, UniProt P25156 1-233)
Assay: cryo-EM structure

Thermoplasma acidophilum 20S proteasome α-subunit, sequence (P25156 whole entry): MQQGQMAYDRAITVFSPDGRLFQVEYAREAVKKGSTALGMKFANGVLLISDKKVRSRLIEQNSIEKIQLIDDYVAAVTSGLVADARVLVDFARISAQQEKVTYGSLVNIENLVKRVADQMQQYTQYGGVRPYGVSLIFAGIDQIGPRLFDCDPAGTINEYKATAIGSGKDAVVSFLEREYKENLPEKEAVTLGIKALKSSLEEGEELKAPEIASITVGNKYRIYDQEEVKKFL

binding result: binds
B1: Thermoplasma acidophilum 20S proteasome β-subunit (natural protein, UniProt P28061 9-211, looked up)
chain: TTTVGITLKDAVIMATERRVTMENFIMHKNGKKLFQIDTYTGMTIAGLVGDAQVLVRYMKAELELYRLQRRVNMPIEAVATLLSNMLNQVKYMPYMVQLLVGGIDTAPHVFSIDAAGGSVEDIYASTGSGSPFVYGVLESQYSEKMTVDEGVDLVIRAISAAKQRDSASGGMIDVAVITRKDGYVQLPTDQIESRIRKLGLIL
